Laboratory results from patent US20150299305A1 (Alexion, published 2015).

Tests used:
[1] = target: T1, human complement component C5 (human, UniProt P01031 19-673; P01031 678-1676); experiment: SPR
T1 construct: mature; Native purified protein; also called human C5; hC5

[2] = target: T1, human complement component C5; experiment: SPR, pH 6.0
[3] = target: T1, human complement component C5; experiment: SPR, pH 7.4
[4] = target: T2, human neonatal Fc receptor (FcRn) (human, UniProt P55899 24-297; P61769 21-119, limits assumed); experiment: SPR, F(ab')2 capture, pH 6.0
T2 construct: also called hFcRn; human FcRn
T2 sequence (P55899 24-297 limits assumed, chain 1 of 2): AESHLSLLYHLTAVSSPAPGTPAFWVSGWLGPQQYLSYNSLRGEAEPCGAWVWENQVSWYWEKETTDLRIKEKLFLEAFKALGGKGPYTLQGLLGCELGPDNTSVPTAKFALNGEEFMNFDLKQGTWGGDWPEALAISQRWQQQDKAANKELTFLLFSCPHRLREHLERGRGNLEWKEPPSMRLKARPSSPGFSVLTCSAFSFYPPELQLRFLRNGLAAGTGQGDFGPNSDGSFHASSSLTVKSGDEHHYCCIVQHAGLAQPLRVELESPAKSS
T2 sequence (P61769 21-119 limits assumed, chain 2 of 2): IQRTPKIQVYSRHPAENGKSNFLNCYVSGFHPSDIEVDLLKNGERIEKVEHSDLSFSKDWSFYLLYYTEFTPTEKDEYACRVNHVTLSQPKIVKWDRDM
Excerpt: The data were processed with a 1:1 Langmuir model using BIAevaluation 4.1 software (BIAcore AB, Uppsala, Sweden) with ‘double referencing’.

[5] = target: T3, Human FcγRIIb/c (CD32b/c) (human, UniProt P31994 46-217, limits assumed); experiment: SPR, antibody immobilized, monomeric FcγR injected, steady state, pH 7.4; SPR, monomeric FcγR
T3 construct: Bought reagent; not shown: 6x histidine tag
T3 sequence (looked up): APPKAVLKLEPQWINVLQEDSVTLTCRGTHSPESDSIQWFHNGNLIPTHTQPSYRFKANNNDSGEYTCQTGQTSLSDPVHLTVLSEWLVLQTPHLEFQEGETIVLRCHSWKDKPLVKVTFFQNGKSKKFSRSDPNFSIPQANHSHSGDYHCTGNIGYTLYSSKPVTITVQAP

[6] = target: T4, Human FcγRI (CD64) (human, UniProt P12314 16-288, limits assumed); experiment: as above
T4 construct: Bought reagent; also called FcγR1; not shown: 6x histidine tag
T4 sequence (P12314 16-288 limits assumed): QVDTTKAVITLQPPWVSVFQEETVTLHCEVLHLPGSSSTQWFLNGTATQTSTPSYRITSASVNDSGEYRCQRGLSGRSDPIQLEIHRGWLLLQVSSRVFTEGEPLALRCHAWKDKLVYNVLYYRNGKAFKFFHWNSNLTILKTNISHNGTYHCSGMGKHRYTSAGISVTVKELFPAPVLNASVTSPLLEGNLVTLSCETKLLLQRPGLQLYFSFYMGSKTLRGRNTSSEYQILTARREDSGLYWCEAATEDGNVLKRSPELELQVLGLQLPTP

[7] = target: T5, Human FcγRIIIa (CD16a) (human, UniProt P08637 17-208, limits assumed); experiment: as above
T5 construct: Bought reagent; not shown: 6x histidine tag
T5 sequence (P08637 17-208 limits assumed): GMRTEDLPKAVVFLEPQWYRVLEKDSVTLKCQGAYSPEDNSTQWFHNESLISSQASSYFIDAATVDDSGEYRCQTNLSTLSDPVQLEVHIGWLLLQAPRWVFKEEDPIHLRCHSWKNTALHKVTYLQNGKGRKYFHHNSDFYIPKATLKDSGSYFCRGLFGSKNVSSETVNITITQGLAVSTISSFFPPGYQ

[8] = target: T6, Human FcγRIIIb (CD16b) (human, UniProt O75015 17-200, limits assumed); experiment: as above
T6 construct: Bought reagent; not shown: 6x histidine tag
T6 sequence (O75015 17-200 limits assumed): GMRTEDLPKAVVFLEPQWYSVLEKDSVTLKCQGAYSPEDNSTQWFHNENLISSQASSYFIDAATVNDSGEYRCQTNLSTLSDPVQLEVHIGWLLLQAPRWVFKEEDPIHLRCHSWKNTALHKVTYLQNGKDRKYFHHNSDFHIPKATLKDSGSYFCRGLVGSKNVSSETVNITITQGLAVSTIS

[9] = target: T7, Human FcγRIIa (CD32a) (human, UniProt P12318 36-218, limits assumed); experiment: SPR, antibody immobilized, monomeric FcγR injected, steady state, pH 7.4
T7 construct: Bought reagent; not shown: 6x histidine tag
T7 sequence (looked up): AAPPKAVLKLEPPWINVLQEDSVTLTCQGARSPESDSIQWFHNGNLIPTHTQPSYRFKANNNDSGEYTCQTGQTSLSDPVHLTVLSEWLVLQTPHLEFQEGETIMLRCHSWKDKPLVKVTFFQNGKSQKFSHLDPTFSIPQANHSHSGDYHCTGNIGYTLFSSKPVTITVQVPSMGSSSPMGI

[10] = target: T7, Human FcγRIIa (CD32a); experiment: ELISA, multimeric antibody immune complexes on His-tagged FcγRIIa; reference not named (IgG1 control implied)
Description: Microtiter plates pre-coated with Ni-NTA (Qiagen) were incubated with 50 μL/well of 6× histidine-tagged human FcγRs (FcγRI, FcγRIIa, FcγRIIb/c, FcγRIIIa or FcγRIIIb), at a receptor concentration of 5 μg/mL in PBS, overnight at 4° C. The plate was then washed 3 times with PBS/0.05% Tween-20. After washing, 50 μL of antibody complexes in PBS/0.05% Tween-20 were incubated in the plate for 60 min at room temperature (RT). After washing the plate with PBS/0.05% Tween-20, 50 μL of streptavidin-HRP (Invitrogen) in PBS/0.05% Tween-20 was added to the plate and incubated for 60 min at RT. Following this incubation and washes, 75 μL of TMB-ELISA substrate (3,3′,5,5′-tetramethylbenzidine, Thermo Scientific) was added. The reaction was stopped with 75 μL of 2 M H₂SO₄, and the absorbance read at 450 nm.
Samples were run in duplicate and data were presented as mean values. […] The absorbance at 450 nm of each concentration of antibody immune complex or in the absence of antibody immune complexes plotted as a graphical representation.

[11] = target: complement component C1q (UniProt P02745 23-245; P02746 28-253; P02747 29-245); experiment: biolayer interferometry
Chain of complement component C1q (P02745 23-245, chain 1 of 3): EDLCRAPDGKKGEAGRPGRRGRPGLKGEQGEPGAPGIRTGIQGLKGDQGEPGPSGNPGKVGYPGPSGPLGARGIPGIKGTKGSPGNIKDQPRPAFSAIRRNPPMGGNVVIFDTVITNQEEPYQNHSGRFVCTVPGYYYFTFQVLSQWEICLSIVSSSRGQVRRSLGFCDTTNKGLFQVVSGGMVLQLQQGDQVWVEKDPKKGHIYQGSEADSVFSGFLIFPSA
Chain of complement component C1q (P02746 28-253, chain 2 of 3): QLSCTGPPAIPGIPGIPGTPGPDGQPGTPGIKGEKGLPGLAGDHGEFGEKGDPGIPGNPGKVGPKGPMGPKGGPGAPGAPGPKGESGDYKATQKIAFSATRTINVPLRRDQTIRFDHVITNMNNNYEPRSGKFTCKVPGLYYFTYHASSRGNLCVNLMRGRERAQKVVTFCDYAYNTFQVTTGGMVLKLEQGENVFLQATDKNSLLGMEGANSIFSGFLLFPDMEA
Chain of complement component C1q (P02747 29-245, chain 3 of 3): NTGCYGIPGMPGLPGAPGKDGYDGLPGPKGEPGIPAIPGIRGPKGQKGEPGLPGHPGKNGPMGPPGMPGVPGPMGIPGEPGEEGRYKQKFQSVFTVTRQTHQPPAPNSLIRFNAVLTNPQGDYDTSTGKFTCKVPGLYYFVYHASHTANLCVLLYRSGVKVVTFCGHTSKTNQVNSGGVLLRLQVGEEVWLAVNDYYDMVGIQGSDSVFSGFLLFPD

[12] = target: T8, human hypercalcemia of malignancy peptide, amino acid residues 1-34 (human, UniProt P12272 37-70); experiment: immunofluorescent staining of UV-resin spot slides
T8 construct: range 1-34; Negative control material on UV-resin spot slides; also called PTHrP 1-34

[13] = target: T4, Human FcγRI (CD64); experiment: SPR, antibody immobilized, single cycle kinetics, pH 7.4; Table 16 cell under the head KD [µM]
Description: The antibody was diluted in 10 mM sodium acetate at pH 5.0 and directly immobilized on one flow cell of a CM5 chip by amine coupling. A second flow cell was used as a reference surface. Concentrations of FcγR1 diluted in running buffer (HBS-EP, pH 7.4) were injected on both cells. This assay required no regeneration. The data was analyzed using a titration kinetics 1:1 model in BIAevaluation 4.1 (Biacore AB, Uppsala, Sweden) software with ‘double referencing’.

[14] = target: T3, Human FcγRIIb/c (CD32b/c); experiment: SPR, antibody immobilized, monomeric FcγR injected, steady state, pH 7.4
Description: (§1) A second flow cell was used as a reference surface. Concentrations of FcγRs diluted in running buffer (HBS-EP, pH 7.4) were injected on both cells. The surface was regenerated each cycle with 20 mM HCl, 0.01% P20. The data was analyzed using a steady state affinity model in BIAevaluation 4.1 software (BIAcore AB, Uppsala, Sweden) with ‘double referencing’.

[15] = target: T5, Human FcγRIIIa (CD16a); experiment: as above
Description: as §1

[16] = target: T6, Human FcγRIIIb (CD16b); experiment: as above
Description: as §1

[17] = target: T9, mouse C5 (mouse, UniProt P06684 19-674; P06684 679-1680); experiment: SPR, anti-Fc capture, pH 7.4; pH 7.4
T9 construct: also called purified mouse C5
T9 sequence (P06684 19-674 limits assumed, chain 1 of 2): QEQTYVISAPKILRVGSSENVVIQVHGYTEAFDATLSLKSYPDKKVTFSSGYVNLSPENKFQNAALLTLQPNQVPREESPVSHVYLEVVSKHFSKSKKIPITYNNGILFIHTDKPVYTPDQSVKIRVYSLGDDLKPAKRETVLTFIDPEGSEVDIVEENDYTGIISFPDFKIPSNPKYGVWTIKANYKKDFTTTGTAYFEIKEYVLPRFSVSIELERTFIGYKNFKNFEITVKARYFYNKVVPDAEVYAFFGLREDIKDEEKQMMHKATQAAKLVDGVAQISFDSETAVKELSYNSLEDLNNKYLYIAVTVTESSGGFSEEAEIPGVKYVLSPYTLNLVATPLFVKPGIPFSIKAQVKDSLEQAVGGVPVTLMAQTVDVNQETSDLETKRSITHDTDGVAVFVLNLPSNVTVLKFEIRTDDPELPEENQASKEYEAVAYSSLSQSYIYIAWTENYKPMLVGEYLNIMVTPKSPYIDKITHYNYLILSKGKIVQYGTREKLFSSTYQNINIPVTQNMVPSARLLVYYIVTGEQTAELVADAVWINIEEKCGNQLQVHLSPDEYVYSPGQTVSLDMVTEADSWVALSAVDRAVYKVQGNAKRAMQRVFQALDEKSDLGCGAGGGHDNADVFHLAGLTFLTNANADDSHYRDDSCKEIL
T9 sequence (P06684 679-1680 limits assumed, chain 2 of 2): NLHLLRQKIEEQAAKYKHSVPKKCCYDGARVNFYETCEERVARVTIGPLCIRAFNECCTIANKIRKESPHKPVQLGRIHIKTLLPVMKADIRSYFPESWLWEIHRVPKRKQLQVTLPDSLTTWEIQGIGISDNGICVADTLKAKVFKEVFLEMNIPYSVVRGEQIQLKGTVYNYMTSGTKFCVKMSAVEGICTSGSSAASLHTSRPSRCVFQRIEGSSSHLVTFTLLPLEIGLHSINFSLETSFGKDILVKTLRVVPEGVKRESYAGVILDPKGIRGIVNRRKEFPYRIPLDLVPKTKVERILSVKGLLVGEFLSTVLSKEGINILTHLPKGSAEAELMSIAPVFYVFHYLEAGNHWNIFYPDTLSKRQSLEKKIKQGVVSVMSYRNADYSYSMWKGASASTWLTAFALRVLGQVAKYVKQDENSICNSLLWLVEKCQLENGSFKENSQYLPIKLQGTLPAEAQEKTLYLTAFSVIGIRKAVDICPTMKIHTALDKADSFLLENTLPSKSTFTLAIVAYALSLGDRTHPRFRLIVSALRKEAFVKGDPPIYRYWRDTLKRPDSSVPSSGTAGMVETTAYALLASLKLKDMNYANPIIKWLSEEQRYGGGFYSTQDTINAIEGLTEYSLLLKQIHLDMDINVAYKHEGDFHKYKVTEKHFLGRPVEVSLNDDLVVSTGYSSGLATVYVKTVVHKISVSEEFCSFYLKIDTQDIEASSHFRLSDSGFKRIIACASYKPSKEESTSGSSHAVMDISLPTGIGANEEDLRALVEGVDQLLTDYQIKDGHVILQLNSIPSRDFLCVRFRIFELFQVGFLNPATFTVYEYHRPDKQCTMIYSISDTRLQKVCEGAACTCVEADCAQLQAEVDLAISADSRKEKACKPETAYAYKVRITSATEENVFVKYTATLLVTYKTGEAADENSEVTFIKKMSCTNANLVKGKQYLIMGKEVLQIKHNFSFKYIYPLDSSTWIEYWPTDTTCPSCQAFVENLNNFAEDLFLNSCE
Description: Briefly, anti-human Fc (KPL, catalogue number: 01-10-20) diluted to 0.1 mg/mL in 10 mM sodium acetate pH 5.0, was immobilized on two flow cells of a CM5 chip for 8 minutes by amine coupling. The antibodies were diluted to 0.25 μg/mL in running buffer (HBS-EP; 0.01 M HEPES pH 7.4, 0.15 M NaCl, 3 mM EDTA, 0.005% v/v Surfactant P20; GE Life Sciences, catalogue number: BR1001-88). The diluted antibody was then injected on one flow cell followed by an injection of 6 nM mouse C5 on both cells. The second flow cell was used as a reference surface. The binding was evaluated at pH 7.4 and pH 6.0. The surface was regenerated each time with 20 mM HCl, 0.01% P20. The data was processed with a 1:1 Langmuir model using BIAevaluation 4.1 software with ‘double referencing’.

B1: EHL004 (antibody, V domains shown)
VH: QVQLVQSGAEVKKPGASVKVSCKASGYIFSNYWIQWVRQAPGQGLEWMGEILPGSGHTEYTENFKDRVTMTRDTSTSTVYMELSSLRSEDTAVYYCARYFFGSSPNWYFDVWGQGTLVTVSS
VL: DIQMTQSPSSLSASVGDRVTITCGASENIYHALNWYQQKPGKAPKLLIYGATNLADGVPSRFSGSGSGTDFTLTISSLQPEDFATYYCQNVLNTPLTFGQGTKVEIK
notes: The VH cell prints only 'S57H'
**Q.** B1 was tested. Which “ratio of KD at pH 6.0/pH 7.4” value [1] did it give?
**A.** 2770

**Q.** What about the Kd [2] of the same binder?
**A.** 374 nM

**Q.** What about the Kd [3] of the same binder?
**A.** 0.135 nM

B2: BNJ441 (antibody, human IgG2, kappa)
heavy: QVQLVQSGAEVKKPGASVKVSCKASGHIFSNYWIQWVRQAPGQGLEWMGEILPGSGHTEYTENFKDRVTMTRDTSTSTVYMELSSLRSEDTAVYYCARYFFGSSPNWYFDVWGQGTLVTVSSASTKGPSVFPLAPCSRSTSESTAALGCLVKDYFPEPVTVSWNSGALTSGVHTFPAVLQSSGLYSLSSVVTVPSSNFGTQTYTCNVDHKPSNTKVDKTVERKCCVECPPCPAPPVAGPSVFLFPPKPKDTLMISRTPEVTCVVVDVSQEDPEVQFNWYVDGVEVHNAKTKPREEQFNSTYRVVSVLTVLHQDWLNGKEYKCKVSNKGLPSSIEKTISKAKGQPREPQVYTLPPSQEEMTKNQVSLTCLVKGFYPSDIAVEWESNGQPENNYKTTPPVLDSDGSFFLYSRLTVDKSRWQEGNVFSCSVLHEALHSHYTQKSLSLSLGK
light: DIQMTQSPSSLSASVGDRVTITCGASENIYGALNWYQQKPGKAPKLLIYGATNLADGVPSRFSGSGSGTDFTLTISSLQPEDFATYYCQNVLNTPLTFGQGTKVEIKRTVAAPSVFIFPPSDEQLKSGTASVVCLLNNFYPREAKVQWKVDNALQSGNSQESVTEQDSKDSTYSLSSTLTLSKADYEKHKVYACEVTHQGLSSPVTKSFNRGEC
notes: IgG2/G4, kappa; also called BNJ441 antibody; BNJ441 engineering batch
**Q.** With B2 as the binder, how does the “fold increase in affinity compared to eculizumab” value [4] read?
**A.** ~10 fold

**Q.** And the Kd [5]?
**A.** 8090 nM

**Q.** What about the Kd [6] of the same binder?
**A.** 3750 nM

**Q.** What about the Kd [7] of the same binder?
**A.** 7230 nM

**Q.** What about the Kd [8] of the same binder?
**A.** 3330 nM

**Q.** What about the Kd [9] of the same binder?
**A.** 2310 nM

**Q.** And the fold weaker association [10]?
**A.** 4 fold

**Q.** Does B2 bind [11]?
**A.** no binding

B3: BNJ441-FITC (antibody, human IgG2, kappa)
heavy: QVQLVQSGAEVKKPGASVKVSCKASGHIFSNYWIQWVRQAPGQGLEWMGEILPGSGHTEYTENFKDRVTMTRDTSTSTVYMELSSLRSEDTAVYYCARYFFGSSPNWYFDVWGQGTLVTVSSASTKGPSVFPLAPCSRSTSESTAALGCLVKDYFPEPVTVSWNSGALTSGVHTFPAVLQSSGLYSLSSVVTVPSSNFGTQTYTCNVDHKPSNTKVDKTVERKCCVECPPCPAPPVAGPSVFLFPPKPKDTLMISRTPEVTCVVVDVSQEDPEVQFNWYVDGVEVHNAKTKPREEQFNSTYRVVSVLTVLHQDWLNGKEYKCKVSNKGLPSSIEKTISKAKGQPREPQVYTLPPSQEEMTKNQVSLTCLVKGFYPSDIAVEWESNGQPENNYKTTPPVLDSDGSFFLYSRLTVDKSRWQEGNVFSCSVLHEALHSHYTQKSLSLSLGK
light: DIQMTQSPSSLSASVGDRVTITCGASENIYGALNWYQQKPGKAPKLLIYGATNLADGVPSRFSGSGSGTDFTLTISSLQPEDFATYYCQNVLNTPLTFGQGTKVEIKRTVAAPSVFIFPPSDEQLKSGTASVVCLLNNFYPREAKVQWKVDNALQSGNSQESVTEQDSKDSTYSLSSTLTLSKADYEKHKVYACEVTHQGLSSPVTKSFNRGEC
modifications: fluoresceinated (FITC); sites not stated
notes: also called fluoresceinated BNJ441
**Q.** Does B3 bind [12]?
**A.** no binding

B4: h5G1.1-IgG1 (antibody)
heavy: not shown
light: DIQMTQSPSSLSASVGDRVTITCGASENIYGALNWYQQKPGKAPKLLIYGATNLADGVPSRFSGSGSGTDFTLTISSLQPEDFATYYCQNVLNTPLTFGQGTKVEIKRTVAAPSVFIFPPSDEQLKSGTASVVCLLNNFYPREAKVQWKVDNALQSGNSQESVTEQDSKDSTYSLSSTLTLSKADYEKHKVYACEVTHQGLSSPVTKSFNRGEC
notes: IgG1 isotype antibody with the same humanized variable region as eculizumab; light chain identical to that of eculizumab and BNJ441; also called h5G1.1-hG1; IgG1 isotype control
**Q.** Which results are given for B4?
**A.** Kd [13]: 0.123 nM; Kd [14]: 3060 nM; Kd [9]: 800 nM; Kd [15]: 850 nM; Kd [16]: 1890 nM

B5: eculizumab (antibody, human IgG2, kappa)
heavy: QVQLVQSGAEVKKPGASVKVSCKASGYIFSNYWIQWVRQAPGQGLEWMGEILPGSGSTEYTENFKDRVTMTRDTSTSTVYMELSSLRSEDTAVYYCARYFFGSSPNWYFDVWGQGTLVTVSSASTKGPSVFPLAPCSRSTSESTAALGCLVKDYFPEPVTVSWNSGALTSGVHTFPAVLQSSGLYSLSSVVTVPSSNFGTQTYTCNVDHKPSNTKVDKTVERKCCVECPPCPAPPVAGPSVFLFPPKPKDTLMISRTPEVTCVVVDVSQEDPEVQFNWYVDGVEVHNAKTKPREEQFNSTYRVVSVLTVLHQDWLNGKEYKCKVSNKGLPSSIEKTISKAKGQPREPQVYTLPPSQEEMTKNQVSLTCLVKGFYPSDIAVEWESNGQPENNYKTTPPVLDSDGSFFLYSRLTVDKSRWQEGNVFSCSVMHEALHNHYTQKSLSLSLGK
light: DIQMTQSPSSLSASVGDRVTITCGASENIYGALNWYQQKPGKAPKLLIYGATNLADGVPSRFSGSGSGTDFTLTISSLQPEDFATYYCQNVLNTPLTFGQGTKVEIKRTVAAPSVFIFPPSDEQLKSGTASVVCLLNNFYPREAKVQWKVDNALQSGNSQESVTEQDSKDSTYSLSSTLTLSKADYEKHKVYACEVTHQGLSSPVTKSFNRGEC
notes: Humanized anti-human C5 antibody, hybrid human IgG2/G4 constant region, human kappa light chain; also called Ec293F
**Q.** Which results are given for B5?
**A.** Kd [5]: 9840 nM; Kd [9]: 2580 nM; fold weaker association [10]: 8 fold; binding result [11]: no binding

B6: BHL006 (antibody, human IgG2, kappa)
heavy: QVQLQQPGAELVRPGTSVKLSCKASGYTFTSSWMHWVKQRPGQGLEWIGVIDPHDSYTNYNQKFKGKATLTVDTSSSTAYMQLSSLTSEDSAVYYCARGGGSSYNRYFDVWGTGTTVTVSSASTKGPSVFPLAPCSRSTSESTAALGCLVKDYFPEPVTVSWNSGALTSGVHTFPAVLQSSGLYSLSSVVTVPSSNFGTQTYTCNVDHKPSNTKVDKTVERKCCVECPPCPAPPVAGPSVFLFPPKPKDTLMISRTPEVTCVVVDVSQEDPEVQFNWYVDGVEVHNAKTKPREEQFNSTYRVVSVLTVLHQDWLNGKEYKCKVSNKGLPSSIEKTISKAKGQPREPQVYTLPPSQEEMTKNQVSLTCLVKGFYPSDIAVEWESNGQPENNYKTTPPVLDSDGSFFLYSRLTVDKSRWQEGNVFSCSVMHEALHNHYTQKSLSLSLGK
light: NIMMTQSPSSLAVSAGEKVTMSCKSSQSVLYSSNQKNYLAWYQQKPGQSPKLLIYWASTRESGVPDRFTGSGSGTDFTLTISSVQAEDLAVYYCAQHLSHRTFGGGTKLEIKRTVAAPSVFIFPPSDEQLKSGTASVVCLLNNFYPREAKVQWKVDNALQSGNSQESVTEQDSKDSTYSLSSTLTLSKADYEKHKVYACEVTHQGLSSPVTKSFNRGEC
notes: BHL011 with three histidine substitutions in the murine variable regions; also called pH-dependent variant of BHL011
**Q.** For B6, which Kd [17] is on record?
**A.** 3.49 nM

**Q.** And the koff [17]?
**A.** 0.00102 s⁻¹

**Q.** And the kon [17]?
**A.** 293000 M⁻¹ s⁻¹

B7: BHL009 (antibody, human IgG2, kappa)
heavy: QVQLQQPGAELVRPGTSVKLSCKASGYTFTSSWMHWVKQRPGQGLEWIGVIDPHDSYTNYNQKFKGKATLTVDTSSSTAYMQLSSLTSEDSAVYYCARGGGSSYNRYFDVWGTGTTVTVSSASTKGPSVFPLAPCSRSTSESTAALGCLVKDYFPEPVTVSWNSGALTSGVHTFPAVLQSSGLYSLSSVVTVPSSNFGTQTYTCNVDHKPSNTKVDKTVERKCCVECPPCPAPPVAGPSVFLFPPKPKDTLMISRTPEVTCVVVDVSQEDPEVQFNWYVDGVEVHNAKTKPREEQFNSTYRVVSVLTVLHQDWLNGKEYKCKVSNKGLPSSIEKTISKAKGQPREPQVYTLPPSQEEMTKNQVSLTCLVKGFYPSDIAVEWESNGQPENNYKTTPPVLDSDGSFFLYSRLTVDKSRWQEGNVFSCSVLHEALHSHYTQKSLSLSLGK
light: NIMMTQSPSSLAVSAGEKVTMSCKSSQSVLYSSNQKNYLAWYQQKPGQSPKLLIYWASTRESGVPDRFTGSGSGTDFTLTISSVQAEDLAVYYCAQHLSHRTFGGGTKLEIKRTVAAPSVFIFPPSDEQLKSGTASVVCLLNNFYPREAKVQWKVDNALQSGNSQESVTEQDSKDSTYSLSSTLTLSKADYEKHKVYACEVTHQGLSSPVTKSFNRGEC
notes: BHL006 with M428L, N434S in the human heavy chain constant region
**Q.** What does the source list for B7?
**A.** Kd [17]: 4.19 nM; koff [17]: 0.00109 s⁻¹; kon [17]: 261000 M⁻¹ s⁻¹
